Test results taken from patent publication US20200199233A1.
Where “and” joins values, the source holds several entries; their conditions need not be identical. Equal entries are not always repeated.

Experiments:
[1] = molecular target: human MUC16 on cells (OVCAR-3, PEO1, 3T3/hβ2M/HLA-A2/NYESO1p/hMUC16) (human); assay: flow cytometry ('FACS binding', MFI_PE) on cells. The sheet names no cell line; the legend of FIGS. 2A-2I names PEO1 (endogenous MUC16). The unit is taken from the axis, Log10 (M).
[2] = molecular target: human MUC16 on cells (OVCAR-3, PEO1, 3T3/hβ2M/HLA-A2/NYESO1p/hMUC16) (human); assay: cell-based or functional assay
hMUC16.mmh (human) = assay: SPR (Biacore), 37 C, antibody captured by anti-human Fc, hMUC16.mmh injected
mCD28.mmh (mouse) = assay: SPR (Biacore), 37 C, antibody captured by anti-human Fc, mCD28.mmh injected
[3] = molecular target: human MUC16 on cells (OVCAR-3, PEO1, 3T3/hβ2M/HLA-A2/NYESO1p/hMUC16) (human); assay: flow cytometry ('FACS binding', MFI_PE) on cells, the same assay as the other two curves. The control's curve is flat at baseline, so this is a fit value without a response. The unit is taken from the axis, Log10 (M).

mCD28.mmh (mouse), sequence (chain, as listed by the source limits assumed): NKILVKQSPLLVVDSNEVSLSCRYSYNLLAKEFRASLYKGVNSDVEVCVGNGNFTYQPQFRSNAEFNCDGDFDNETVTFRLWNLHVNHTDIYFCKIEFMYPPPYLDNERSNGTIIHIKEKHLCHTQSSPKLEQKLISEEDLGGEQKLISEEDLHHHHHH
hMUC16.mmh (human), sequence (chain, as listed by the source limits assumed): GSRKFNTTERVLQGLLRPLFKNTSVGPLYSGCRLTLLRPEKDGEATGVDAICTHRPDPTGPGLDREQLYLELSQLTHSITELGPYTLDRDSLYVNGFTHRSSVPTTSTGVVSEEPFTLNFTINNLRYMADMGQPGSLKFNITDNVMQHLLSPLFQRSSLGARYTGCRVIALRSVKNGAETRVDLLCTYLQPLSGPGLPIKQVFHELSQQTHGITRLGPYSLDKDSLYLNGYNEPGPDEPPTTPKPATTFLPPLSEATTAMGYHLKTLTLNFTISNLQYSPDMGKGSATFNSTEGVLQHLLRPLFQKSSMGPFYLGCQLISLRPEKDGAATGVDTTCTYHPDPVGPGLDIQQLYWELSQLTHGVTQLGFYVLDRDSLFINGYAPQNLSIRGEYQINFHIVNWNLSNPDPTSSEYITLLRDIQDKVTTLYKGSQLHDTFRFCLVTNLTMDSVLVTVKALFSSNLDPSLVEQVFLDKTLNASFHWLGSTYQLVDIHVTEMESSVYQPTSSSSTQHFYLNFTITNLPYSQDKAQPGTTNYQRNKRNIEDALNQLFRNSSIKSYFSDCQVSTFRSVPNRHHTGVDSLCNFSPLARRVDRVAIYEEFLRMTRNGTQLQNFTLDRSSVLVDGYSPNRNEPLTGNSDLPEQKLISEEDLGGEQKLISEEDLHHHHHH

REGN4018 (bispecific antibody) was tested, and the EC50 [1] was 1840 pM, the PEO1 Kill EC50 [M], human PBMCs, MUC16xCD3 as single agent [2] was 1.27e-10 M and the PEO1 Kill EC50 [M], human PBMCs, MUC16xCD3 titrated in the presence of bs24963D [2] was 1.07e-10 M and 5.31e-11 M. The PEO1 min. % viability, human PBMCs, MUC16xCD3 as single agent [2] was 57%, the PEO1 min. % viability, human PBMCs, MUC16xCD3 titrated in the presence of bs24963D [2] was 9.8% and the PEO1 min. % viability, human PBMCs, MUC16xCD3 titrated in the presence of bs32897D [2] was 17.7%.
With REGN4615 (bispecific antibody) the 90 nM hMUC16.mmh Bind (RU) (hMUC16.mmh (human)) was 513 RU, the Kd (hMUC16.mmh (human)) was 749 pM and the T½ (hMUC16.mmh (human)) was 0.408 h. It also gave a koff (hMUC16.mmh (human)) of 0.000472 s⁻¹, a kon (hMUC16.mmh (human)) of 629000 M⁻¹ s⁻¹ and a Kd (mCD28.mmh (mouse)) of 3760 pM. For the same substance, the T½ (mCD28.mmh (mouse)) was 2.48 h, the koff (mCD28.mmh (mouse)) was 7.77e-05 s⁻¹ and the kon (mCD28.mmh (mouse)) was 20700 M⁻¹ s⁻¹.
“CD3-BINDING CONTROL (bispecific antibody)” showed an EC50 [3] of 2270 pM.
